Test results: US8962344B2, “Membrane-coated particles” (Synamem Corporation, priority 2008, dated 2015)

Experiments:
[1] = molecular target: T1, transferrin receptor (Cricetulus griseus, UniProt Q07891); assay: Ligand binding and displacement assay on membrane-coated particles (fluorescence microscopy); design: species or system Chinese Hamster
T1 construct: present endogenously in membrane-coated particles derived from CHO cell membranes; endogenous in cells; host or cells: CHO cell membranes deposited on silica microspheres
T1 sequence (Q07891 whole entry): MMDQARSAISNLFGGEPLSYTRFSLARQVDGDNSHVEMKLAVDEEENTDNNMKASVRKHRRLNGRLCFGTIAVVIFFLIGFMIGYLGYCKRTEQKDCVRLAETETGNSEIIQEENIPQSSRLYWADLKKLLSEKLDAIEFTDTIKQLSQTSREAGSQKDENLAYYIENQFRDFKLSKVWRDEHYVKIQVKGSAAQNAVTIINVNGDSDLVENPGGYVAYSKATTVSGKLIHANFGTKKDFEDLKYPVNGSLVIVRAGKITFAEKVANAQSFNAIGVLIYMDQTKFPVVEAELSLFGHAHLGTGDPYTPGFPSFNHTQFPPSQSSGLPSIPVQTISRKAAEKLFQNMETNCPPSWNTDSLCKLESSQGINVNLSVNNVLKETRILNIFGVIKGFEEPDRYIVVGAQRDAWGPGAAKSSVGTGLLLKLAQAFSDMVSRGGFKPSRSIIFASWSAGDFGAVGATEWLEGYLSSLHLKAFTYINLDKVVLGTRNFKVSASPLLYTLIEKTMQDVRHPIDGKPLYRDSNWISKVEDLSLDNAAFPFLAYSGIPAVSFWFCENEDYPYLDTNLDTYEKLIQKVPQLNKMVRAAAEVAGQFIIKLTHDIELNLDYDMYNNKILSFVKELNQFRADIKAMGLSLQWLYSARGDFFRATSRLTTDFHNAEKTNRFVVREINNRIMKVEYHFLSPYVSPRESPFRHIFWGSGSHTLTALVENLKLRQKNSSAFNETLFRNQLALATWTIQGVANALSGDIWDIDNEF
Protocol: (§1) The binding of transferrin to its receptor was studied for ligand/receptor interactions, present endogenously in membrane-coated particles derived from CHO cell membranes (Example 1). Freshly-prepared membrane-coated particles were resuspended in 1 ml of binding buffer (10 mM Tris-HCl pH 7.4, 100 mM NaCl). Beads were subsequently pelleted and resuspended in 1 ml of blocking buffer (0.1% w/v casein in binding buffer), and incubated at room temperature for 15 minutes with rotation. Beads were pelleted and resuspended in 980 μL of binding buffer. At this time, any inhibitors or antagonists (e.g. excess of unlabeled transferrin) could have been added for a pre-incubation step. ALEXA FLUOR® 488-conjugated human holotransferrin was added to the membrane-coated particles at a final concentration of 10 μg/ml, followed by incubation at room temperature for 15 minutes with rotation. Following the incubation with transferrin, the beads were washed twice with binding buffer in preparation for viewing using fluorescence microscopy (same microscope apparatus as described in Example 1). The accessibility of membrane proteins (in this case the transferrin receptor) to interact with various ligands and test agents (in this case transferrin) is shown by the results (see FIGS. 2A-2E).

[2] = Labeled ligand binding to bare silica beads (control for non-specific binding); details: silica beads devoid of membranes; FIG. 2C
Protocol: as §1

Substance	binding of fluorescently-labeled transferrin to the membrane-coated particles ([1]; endogenously-expressed transferrin receptor, CHO cell membranes on silica beads, 10 μg/ml, room temperature, 15 minutes, FIG. 2A)	interaction of fluorescently-labeled transferrin with bare silica [2]	competition of labeled transferrin binding ([1]; 100-fold molar excess of unlabeled transferrin, CHO membrane-coated particles, FIG. 2B)
fluorescently-labeled transferrin: ALEXA FLUOR® 488-conjugated human holotransferrin, labeled ligand of the transferrin receptor	binds efficiently	does not interact appreciably	–
unlabeled transferrin: unlabeled transferrin used in excess as competitor of labeled transferrin binding	–	–	readily competed away
